Results taken from publication PMC4894640, “RAB-10 Promotes EHBP-1 Bridging of Filamentous Actin and Tubular Recycling Endosomes” (PLoS Genetics, 2016).

Target: F-actin (polymerized non-muscle actin) (UniProt P60709 1-375)
Test: co-sedimentation; GST fusion protein incubated with 40 ul freshly polymerized non-muscle actin (21 uM F-actin) or F-actin buffer alone, 30 min at room temperature, 150,000 x g 1.5 h at 24 C; supernatant and pellet on SDS-PAGE, coomassie or western blot, densitometry
Conditions: both partners purified

B1: GST-EHBP-1(260-510aa) (domain or fragment, C. elegans, UniProt G5ECW3 260-510, looked up)
chain: APAPIATNRHSRSSRASTEEKASTTIEFRVDSNSRHVPVTAIATPYYLQSGTMSRGRSNSPRAPSRDAVPQPIDGETLLSWCQRVTNGYSHVKVNDFMKSWNNGLALCAVLHSYRPDLIGDYETLDISNNMSGRISNIQRALDSLTLIGITEVPTVDMFLTPDRKQIEFLLQHLRRIFEGFDEGSTPASASDHRISRTFGINESEEKVVAMITEIRNQKDLEEAVDYRHIPDEVPVTPQLASRNPALNQPT
notes: C. elegans EHBP-1, central calponin homology (CH) domain, residues 260-510; Cloned into pGEX-2T modified with a Gateway cassette; also called GST-CH; GST-EHBP-1-CH (aa260-510); source: E. coli ArcticExpress, purified (glutathione-Sepharose 4B, eluted with glutathione); held on glutathione beads for the pull-down
P/S ratio (pellet/supernatant) with actin filaments: ~80%
